Target: T1, dTIS11-6His (UniProt P47980 1-436)
T1 sequence: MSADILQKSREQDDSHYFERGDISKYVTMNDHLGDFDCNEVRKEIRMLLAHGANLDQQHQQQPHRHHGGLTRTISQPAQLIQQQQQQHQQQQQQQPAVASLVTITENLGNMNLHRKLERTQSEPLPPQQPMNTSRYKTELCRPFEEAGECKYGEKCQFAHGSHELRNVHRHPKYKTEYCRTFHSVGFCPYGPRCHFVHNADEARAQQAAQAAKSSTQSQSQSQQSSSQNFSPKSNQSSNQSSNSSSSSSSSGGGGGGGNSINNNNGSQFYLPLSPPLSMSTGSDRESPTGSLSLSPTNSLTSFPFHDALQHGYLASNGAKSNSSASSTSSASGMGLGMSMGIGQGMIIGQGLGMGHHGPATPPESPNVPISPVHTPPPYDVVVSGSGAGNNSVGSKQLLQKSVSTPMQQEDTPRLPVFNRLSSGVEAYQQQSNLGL
Assay: ITC; 5 uM ZnCl2; ITC: 20 mM MES pH 6.5, 300 mM NaCl, 5 uM ZnCl2, 0.5 mM DTT, 10 C; EMSA: 20 mM Tris pH 7.8, 3 mM MgCl2, 40 mM KCl, 2 mM DTT, 5% glycerol, gel at 4 C
Details: protein: recombinant; tags: C-terminal 6His

## UGUUUAUUUUUAGUCCACCUCUCAAUUUAUUUAUUAUUUUUAUGA (ssRNA) [ImpL3 ARE (ITC)]
  Kd: 2.4 µM

## AUUCUAUUGUUUCUUCUUAUAUAUUGUUAUUCUUCACAUAAUGUU (ssRNA) [Scrambled ImpL3 ARE (ITC)]
  binding result: no binding

## GAUUAUUUAUAAUUAUUUAUUUAAAGAUCUAUUUAUUC (ssRNA) [CecA1 ARE]
  Kd: 0.58 µM

## CGAUUUAUUUAUUUAGA (ssRNA) [TNF ARE]
  Kd: 0.895 µM

Source: article PMC5980108, “ARE-mediated decay controls gene expression and cellular metabolism upon oxygen variations”
